What was measured:
[1] = target: VCL, P12003-1
[2] = target: fak1_chick PTK2 (UniProt Q00944)
Sequence of fak1_chick PTK2 (Q00944 whole entry): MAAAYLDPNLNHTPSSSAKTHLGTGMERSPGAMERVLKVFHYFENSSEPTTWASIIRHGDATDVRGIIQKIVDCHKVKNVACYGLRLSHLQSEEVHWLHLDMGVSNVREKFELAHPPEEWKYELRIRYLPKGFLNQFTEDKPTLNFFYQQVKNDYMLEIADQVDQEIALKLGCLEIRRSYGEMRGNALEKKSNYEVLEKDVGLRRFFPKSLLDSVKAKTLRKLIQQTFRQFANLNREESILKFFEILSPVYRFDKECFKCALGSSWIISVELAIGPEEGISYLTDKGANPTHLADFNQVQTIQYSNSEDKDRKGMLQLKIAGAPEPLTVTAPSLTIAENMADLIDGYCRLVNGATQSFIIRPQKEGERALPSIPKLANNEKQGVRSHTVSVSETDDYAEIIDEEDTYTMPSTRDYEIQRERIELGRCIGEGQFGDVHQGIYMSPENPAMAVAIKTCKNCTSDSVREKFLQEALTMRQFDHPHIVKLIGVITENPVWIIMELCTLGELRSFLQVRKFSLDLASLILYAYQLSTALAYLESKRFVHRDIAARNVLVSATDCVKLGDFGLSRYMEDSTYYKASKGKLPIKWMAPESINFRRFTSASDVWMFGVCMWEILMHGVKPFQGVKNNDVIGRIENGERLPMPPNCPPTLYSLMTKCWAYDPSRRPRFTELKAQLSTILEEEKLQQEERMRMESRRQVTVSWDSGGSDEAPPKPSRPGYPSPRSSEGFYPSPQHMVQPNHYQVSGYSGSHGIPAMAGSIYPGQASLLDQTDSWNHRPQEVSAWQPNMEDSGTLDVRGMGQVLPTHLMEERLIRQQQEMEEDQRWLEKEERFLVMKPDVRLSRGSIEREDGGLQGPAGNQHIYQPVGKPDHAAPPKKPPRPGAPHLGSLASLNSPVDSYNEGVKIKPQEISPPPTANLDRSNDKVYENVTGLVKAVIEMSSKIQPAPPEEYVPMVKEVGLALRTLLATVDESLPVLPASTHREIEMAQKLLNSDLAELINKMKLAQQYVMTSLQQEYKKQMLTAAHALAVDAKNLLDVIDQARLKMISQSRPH

Sequence of VCL, P12003-1 (P12003 other isoform, or with tags, fused parts or gaps): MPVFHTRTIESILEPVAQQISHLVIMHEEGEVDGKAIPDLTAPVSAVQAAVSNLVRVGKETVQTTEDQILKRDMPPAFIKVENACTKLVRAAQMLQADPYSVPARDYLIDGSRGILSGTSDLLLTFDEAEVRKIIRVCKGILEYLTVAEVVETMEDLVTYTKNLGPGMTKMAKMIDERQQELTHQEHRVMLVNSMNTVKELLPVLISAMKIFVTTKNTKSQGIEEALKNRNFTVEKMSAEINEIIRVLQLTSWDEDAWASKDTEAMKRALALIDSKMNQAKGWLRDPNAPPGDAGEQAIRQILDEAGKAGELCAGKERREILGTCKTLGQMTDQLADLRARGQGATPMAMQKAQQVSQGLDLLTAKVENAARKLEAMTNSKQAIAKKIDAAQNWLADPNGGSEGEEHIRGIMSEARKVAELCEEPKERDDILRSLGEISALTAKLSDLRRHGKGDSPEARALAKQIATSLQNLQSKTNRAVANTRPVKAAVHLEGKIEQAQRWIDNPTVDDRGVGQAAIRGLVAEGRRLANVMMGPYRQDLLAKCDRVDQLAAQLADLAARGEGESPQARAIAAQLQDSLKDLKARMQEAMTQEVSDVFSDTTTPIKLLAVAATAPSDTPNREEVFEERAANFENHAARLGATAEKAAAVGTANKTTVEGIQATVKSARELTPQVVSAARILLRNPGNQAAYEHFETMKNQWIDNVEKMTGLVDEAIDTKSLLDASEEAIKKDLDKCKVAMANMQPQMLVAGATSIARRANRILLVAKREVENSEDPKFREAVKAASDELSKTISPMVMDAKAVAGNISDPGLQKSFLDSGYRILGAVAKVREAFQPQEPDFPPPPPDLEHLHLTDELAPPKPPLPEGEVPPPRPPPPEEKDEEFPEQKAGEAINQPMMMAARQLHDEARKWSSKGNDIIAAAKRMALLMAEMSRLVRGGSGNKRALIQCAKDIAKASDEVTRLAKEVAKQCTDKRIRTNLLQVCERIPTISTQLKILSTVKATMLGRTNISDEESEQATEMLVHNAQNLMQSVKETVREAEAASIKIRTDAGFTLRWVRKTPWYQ
Sequence of Paxillin (Gallus gallus (Chicken)), P49024 D146N;R147Q (P49024 whole entry D146N/R147Q): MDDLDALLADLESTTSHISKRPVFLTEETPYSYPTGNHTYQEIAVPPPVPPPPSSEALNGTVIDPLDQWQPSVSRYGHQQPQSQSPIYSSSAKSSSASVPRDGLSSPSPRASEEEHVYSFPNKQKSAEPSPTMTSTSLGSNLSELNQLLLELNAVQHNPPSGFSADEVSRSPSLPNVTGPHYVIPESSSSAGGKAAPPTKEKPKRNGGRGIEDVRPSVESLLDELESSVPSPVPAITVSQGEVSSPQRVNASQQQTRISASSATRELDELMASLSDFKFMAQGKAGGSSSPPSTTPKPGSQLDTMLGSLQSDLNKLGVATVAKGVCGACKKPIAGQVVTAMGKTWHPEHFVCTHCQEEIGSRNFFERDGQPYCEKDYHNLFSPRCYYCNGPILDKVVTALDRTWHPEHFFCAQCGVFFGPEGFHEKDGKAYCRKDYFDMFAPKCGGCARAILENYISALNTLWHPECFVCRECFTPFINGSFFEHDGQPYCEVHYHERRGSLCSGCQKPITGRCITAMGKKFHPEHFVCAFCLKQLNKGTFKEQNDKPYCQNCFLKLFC
Sequence of Paxillin (Gallus gallus (Chicken)), P49024 E151Q (P49024 whole entry E151Q): as the sequence (P49024 whole entry D146N/R147Q) above, with N146D, Q147R, E151Q counted along it

Row | effect of a mutation on the interaction [1] | effect of a mutation on the interaction [2] | Substance
1 | decreasing interaction |  | Paxillin (Gallus gallus (Chicken)), P49024 E151Q
2 | decreasing interaction | decreasing interaction | Paxillin (Gallus gallus (Chicken)), P49024 D146N;R147Q

Reference: IntAct's records for PubMed 8922390
